Laboratory results published in the nanobody polyreactivity screen of Harvey et al. (2022).

Experiment: yeast display, Sf9 membrane polyspecificity reagent, FACS + sequencing; frameworks hold sequencing errors
How it was run: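 Nanobodies from a synthetic yeast display library (Saccharomyces cerevisiae BJ5465), induced 36–48 hours with galactose, were stained 1 hour at 4 °C with 10% biotinylated, detergent-solubilized Sf9 membrane reagent, enriched on streptavidin microbeads, then FACS-sorted. Anti-HA (expression) and streptavidin (reagent binding) fluorescence set low and high (top ~1%) gates. Polyreactivity labels come from the gate of origin. Genes were colony-PCR amplified, MiSeq 2 × 250 sequenced and filtered by CDR length.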

Row | Sequence | polyreactivity (PSR sort gate)
1 | QVQLVESGGGLVQAGGSLRLSCAASGSTYPGNAMGWYRQAPGNERELVALINDGADTNYADSVKGRFTISRDNAKNTVYLQMNSLKPEDTAVYYCAKRSLYPTYDYWGQGTQVTVSS | low polyreactivity
2 | QVQLVESGGGLVQAGGSLRLSCAASGRIFTQYTMGWYRQAPGKERELVAAISRGGGSTYYADSVKGRFTISRDNAKNTVYLQMNSLKPEDTAVYYCAAIRREVVAGDYWGQGTQVTVSS | high polyreactivity
3 | QVQLVESGGGLVQAGGSLRLSCAASGITFKYAMGWYRQAPGKERELVAAISGGGRTNYADSVKGRFTISRDNAKNTVYLQMNSLKPEDTAVYYCAAQGSRWWGFDYWGQGTQVTVSS | high polyreactivity
4 | QVQLVESGGGLVQAGGSLRLSCAASGIIFISYVMGWYRQAPGKERELVAAITRSGDSTYYADSVKGRFTISRDNAKNTVYVQMNSLKPEDTAVYYCAAEHAYSYWDYDYWGQGTQVTVSS | high polyreactivity
5 | QVQLVESGGGLVQAGGSLRLSCAASGIIFDDYAMGWYRQAPGKERELVAAITDSGGSTYYADSVKGRFTISRDNAKNTVYLQMNSLKPEDTAVYYCAARTQRRVNRVGYRSNYYYWGQGTQVTVSS | low polyreactivity
6 | QVQLVESGGGLLQAGGSLRLSCAASGRNFRYYAMGWYRQAPRKERELVAAITRGGRTNYADSVKGRFTISRDNAKNTVYLQMNSLKPEDSAVYYCAADYTKYYRRYYYWGQGTQVTVSS | high polyreactivity
7 | QVQLVESGGGLVQAGGSLRLSCAASGRIFTPNAMGWCRQAPGKERELVAAITWSGDNTYADSVKGRFTISRDNAKNTVYLQMNSLKPEDTAVYYCAAAYGYGHKKYGYWGQGTQVTVSS | low polyreactivity
8 | QVQLVESGGGLVQAGGSLRLSCAATGSPFILYALGWYRQAPGKERALVAAITTSGGSTYYADSVKGRFTISRDNAKNTVYLQMNSLKPEDTAVYYCNADWGWRYSSDFDYWGQGTQVTVSS | low polyreactivity
9 | QVQLVESGGGLVQAGGSLRISCAASGTFGSNAMGWYRQAPGKERELVAAINSGGTTKYADSVKGRFTISRDNAKNTVYLQMNSLKPEDTAVYYCNAREGVFRYPVAHDYWGQGTQVTVSS | low polyreactivity
10 | QVQLVESGGGLVQAGGSLRLSCAASGRTFKPYAMGWYRQAPGKERELVAAISSRGTSTNYADSVKGRFTISRDNAKNTVYLQMNSLKPEDTAVYYCNRVLLPGPQYQWGKAYDYWGQGTQVTVSS | high polyreactivity
11 | QVQLVESGGGLVQAGGSLRLSCAASGRIFYYYAMGWYRQAPGKEREFVAAITGRGGSTYYADSVKGRFTISRDNEKNTVYLQMYSLKPEDTAVYYCNAGQYFEYYGWYSRYGYWGQGTQVTVSS | low polyreactivity
12 | QVQLVESGGGLVQAGGSLRLSCAASGSIFEGYAMGWYRQAPGKERELVAAISWSSARTYYADSVKGRFTISRDNAKNTVYLQMNSLKPEDTAVYYCNAVARNNRNSRQRIPYDYWGQGTQVTVSS | high polyreactivity
13 | QVQLVESGGGLVQAGGSLRLSCAASGFTFEWYTMRCYRQAPGKERELVADISGDGSTYYADSVKGRFTISRDNAKNTVYLQMNSLKPEDTAVYYCAARTRRYHRPGLSPGNYWGQGTQVTVSS | high polyreactivity
14 | QVQLVESGGGLVQAGGSLRLSCAASGSTFDINAMGWYRQAPGKERELVASITFCGGSTYYADSVKGRFTISRDNAKNTVYLEMNSLKPEDTAVYYCAADSSGEYPGGYWGQGTQVTVSS | low polyreactivity
15 | QVLLQESGGLVQAGCSLRMSCAASGSISTALSMGWYRQAPGKERELVSTISDGASTNYADSVKGRFTISRVNAKNTVYLQMNSLKPEDTAVYYCARYYFGNFGWGQGTQVTVSS | high polyreactivity
16 | QVQLVESGGGLVQAGGSLRLSCAASGNIFLYYAMGWYRQAPGNERELVADIDSSGASTYYADSVKGRFTISRDNAKNTVYFQMNSLKPEDTAVYYCASEFHWWYAGYDYGYWGQGTQVTVSS | low polyreactivity

Row | Sequence | polyreactivity (PSR sort gate)
17 | QVQLVESGGGLVQARGSLRLSCAASGRTISYNVMGWYRQAPGKERELVAAITWTGGSTYYADSVKGRFTISRDNAKNTVYLLMNSLKPEDTAVYYCNAAKPYAYWVPNDYWGQGTQVTVSS | low polyreactivity
18 | QVLLQERGGGLVQAGGSLRLSCAASGTISTDIRMGWYRLAPGKEREFVASIDGCSTTYYAYSVKGRFTISRDNAKNTVYLQMNSLKPEDTAMYYCAAREATEFYLYYWGQGTQVTVSS | low polyreactivity
19 | QVQLVESGGGLVQAGGSLRLSCAASGRILYSYAMGWYRQAPGKERELVASISWSGGSTYYADSVKGRFTISRDNAKNTVYLQMNSLKPEDTAVYYCAKKYYSVYQTDVSGRYDYWGQGTQVTVSS | low polyreactivity
20 | QVHLVESGGGLVQAGGRLRLSCAASGSIFGYNAMGWYRQAPGKERELVAAISSTGGSTYYADSVKGRFTISRDNAKNTVYLQMNSLYPEDTAVYYCAKRGQSYFKGYDYWGQGTQVTVSS | low polyreactivity
21 | QVQHVETGGGLVQAGGSLRLSCAASGFIFAEYAMGWYRQAPGKETEEVAAITSGGSTSYADSVKGRFTISRDNAKNTVYLQMNSLKPEDTAVYYCAATWYYLYNVWKHWYEYGYWGQGTQVTVSS | low polyreactivity
22 | QVQLVESGGGLVQAGGSLRLSCAASGITFRYYTMGWYRQAPGKERELVAAITTSGTGTYYADSVKGRFTISRDNAKNTVYLQMNSLNPEYSAVYYCATYPHIAVLSRYDYWGQGTQVTVSS | low polyreactivity
23 | QVQLVESGGGLVQAGGSLRLSCAASGRIFDYYAMGWYRQAPGKERELVARISIGGSTYADSVKGRFTISRDNAKNTVYLQMNSLKPEDSAVDYCADSTIRLVGYRTYWGPRYDYWGQGTQVTVSS | low polyreactivity
24 | QVQLVESGGGLVQAGGSLRLSCAASGGILDTYAMGWYRQAPGKERELVAAITSGGNTNYADSVKGRFTISRDNAKNTVYLQMNSLKPEDSAVYYCNVVTWYYVFRPWEYEYWGQGTQVTVSS | low polyreactivity
25 | QVQLVESGGGLVQAGGSLRLSCAASGRIFPFNAMGWYRQAPGKEREFVAAIRLSGTRTYYADSVKGRFTISRDNAKNTVYLQMNSLKPEDTAVYYCAAKYSGHYYNYDYWGQGTQVSVSS | high polyreactivity
26 | QVQLVESGGGLVQAGGSLRLSCAASGRTFDRNTMGWYRQAPGKERELVAAISSSGGSTYYADSVKGRFTISRDNAKNTVYLQMNSLKPEDTAVYYCAVLSRQYFRYGYDYWGQGTQVTVSS | high polyreactivity
27 | QVQLVESGGGLVQAGGSLRLSCAASGSIIHRNAMGWYRQAPGKERELVATITSNGGSTYYADSVKGRFTISRDNAKNTVYLQMNSLKPEETAVYYCARKYRSPISALLTGDYWGQGTQVTVSS | low polyreactivity
28 | QVQHVESGGGLVQAGGSLRLSCAASGSTFSKYAMGWYRLAPGKERELVAAINYGGTSTYYADSVKGRFTISRDNAKNTVYLQMNSLKPEDTAVYYCAVIYRRLYTGGQNPYDYWGQGTQVTVSS | high polyreactivity
29 | QVQLVESGGGLVQAGGSLRLSCAASGSTIVYYAMGWYRQAPGKERELVAAINYSSGSTYYADSVKGRFTISRDNSKNTVYLQMNSLKPEDTAVYYCATDLLYYQYYSEYDYWGQGTQVTVSS | high polyreactivity
30 | QVQLVESGGGLVQAGGSLRLSCAASGYIFRYYAMGWYRQAPGKERELVAAISWNGGRTYYADSVKGRFTISRDNAKNTVYLQMNSLKPEDTAVYYCAARYWGDYFTEMNYWGQGTQVTVSS | high polyreactivity
31 | QVQLVESGGGLVQAGGSLRLSCAASGSIFRYYAMGWYRQAPGKERELVAAISQSGTSTYYADSVKGRFTISRDNAKNTVYLQMNSLKPEDTAVYYCAAYPYYDRDYWGQGTQVTVSS | low polyreactivity
